Two molecules from patent EP4663654A1 (Hangzhou Sciwind Biosciences Co., Ltd., dated 2025) can be followed below.

This assay addresses T1, human amylin receptor (AMY3) on CHO-K1/Ga15/AMY3 amylin receptor/CRE-luc cells (human, UniProt P30988 25-474; O60896 24-148).
T1 sequence (looked up) 1: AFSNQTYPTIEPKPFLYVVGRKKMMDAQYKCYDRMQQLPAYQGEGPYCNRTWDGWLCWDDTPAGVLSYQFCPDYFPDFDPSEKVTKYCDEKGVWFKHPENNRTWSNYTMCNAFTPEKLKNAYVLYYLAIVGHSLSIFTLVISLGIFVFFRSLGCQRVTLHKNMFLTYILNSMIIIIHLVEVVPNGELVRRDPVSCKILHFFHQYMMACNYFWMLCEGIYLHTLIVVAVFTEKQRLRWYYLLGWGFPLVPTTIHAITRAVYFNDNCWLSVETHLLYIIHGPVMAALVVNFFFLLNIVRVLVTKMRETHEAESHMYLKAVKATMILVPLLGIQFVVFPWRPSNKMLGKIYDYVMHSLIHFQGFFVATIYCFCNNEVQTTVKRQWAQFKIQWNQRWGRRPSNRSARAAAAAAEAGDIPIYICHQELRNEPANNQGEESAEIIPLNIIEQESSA
T1 sequence (looked up) 2: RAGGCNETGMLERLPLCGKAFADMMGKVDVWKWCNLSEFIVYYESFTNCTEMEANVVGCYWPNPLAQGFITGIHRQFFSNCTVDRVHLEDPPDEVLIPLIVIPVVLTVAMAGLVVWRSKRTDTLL
Description: cell-based or functional assay.

Starred links: 1 amine or outer side, 2 acyl side, 3 side chain; linkers in the order of their positions; H or OH if unused. *: point of attachment. C20 diacid = O=C(O)CCCCCCCCCCCCCCCCCCC(=O)*; γGlu = O=C(O)[C@H](CCC(=O)[*:2])N[*:1]; AEEA = NCCOCCOCC(=O)O

B1: polypeptide derivative M3 (peptide)
peptide: {C20 diacid-γGlu}-ASELSTAALGRLADFLRHFTDRDRDILPPTNVGSNTP-NH2
SMILES: CC[C@H](C)[C@H](NC(=O)[C@H](CC(=O)O)NC(=O)[C@H](CCCNC(=N)N)NC(=O)[C@H](CC(=O)O)NC(=O)[C@H](CCCNC(=N)N)NC(=O)[C@H](CC(=O)O)NC(=O)[C@@H](NC(=O)[C@H](Cc1ccccc1)NC(=O)[C@H](Cc1c[nH]cn1)NC(=O)[C@H](CCCNC(=N)N)NC(=O)[C@H](CC(C)C)NC(=O)[C@H](Cc1ccccc1)NC(=O)[C@H](CC(=O)O)NC(=O)[C@H](C)NC(=O)[C@H](CC(C)C)NC(=O)[C@H](CCCNC(=N)N)NC(=O)CNC(=O)[C@H](CC(C)C)NC(=O)[C@H](C)NC(=O)[C@H](C)NC(=O)[C@@H](NC(=O)[C@H](CO)NC(=O)[C@H](CC(C)C)NC(=O)[C@H](CCC(=O)O)NC(=O)[C@H](CO)NC(=O)[C@H](C)NC(=O)CC[C@H](NC(=O)CCCCCCCCCCCCCCCCCCC(=O)O)C(=O)O)[C@@H](C)O)[C@@H](C)O)C(=O)N[C@@H](CC(C)C)C(=O)N1CCC[C@H]1C(=O)N1CCC[C@H]1C(=O)N[C@H](C(=O)N[C@@H](CC(N)=O)C(=O)N[C@H](C(=O)NCC(=O)N[C@@H](CO)C(=O)N[C@@H](CC(N)=O)C(=O)N[C@H](C(=O)N1CCC[C@H]1C(N)=O)[C@@H](C)O)C(C)C)[C@@H](C)O
For the molecule B1, the “EC50/nM, CRE-luciferase reporter in amylin receptor/CRE-luc CHO cells” value was determined as 0.081 nM and the “Relative activity (the EC50 ratio of Cagrilintide to the compound)” value came out at 32%.

B2: polypeptide derivative M25 (peptide)
peptide: {C20 diacid-γGlu-AEEA-AEEA-AEEA-AEEA-AEEA-AEEA}-ASQLSTAATQRLADFLRHFTDRDRDILPPTNVGSNTP-NH2
SMILES: CC[C@H](C)[C@H](NC(=O)[C@H](CC(=O)O)NC(=O)[C@H](CCCNC(=N)N)NC(=O)[C@H](CC(=O)O)NC(=O)[C@H](CCCNC(=N)N)NC(=O)[C@H](CC(=O)O)NC(=O)[C@@H](NC(=O)[C@H](Cc1ccccc1)NC(=O)[C@H](Cc1c[nH]cn1)NC(=O)[C@H](CCCNC(=N)N)NC(=O)[C@H](CC(C)C)NC(=O)[C@H](Cc1ccccc1)NC(=O)[C@H](CC(=O)O)NC(=O)[C@H](C)NC(=O)[C@H](CC(C)C)NC(=O)[C@H](CCCNC(=N)N)NC(=O)[C@H](CCC(N)=O)NC(=O)[C@@H](NC(=O)[C@H](C)NC(=O)[C@H](C)NC(=O)[C@@H](NC(=O)[C@H](CO)NC(=O)[C@H](CC(C)C)NC(=O)[C@H](CCC(N)=O)NC(=O)[C@H](CO)NC(=O)[C@H](C)NC(=O)COCCOCCNC(=O)COCCOCCNC(=O)COCCOCCNC(=O)COCCOCCNC(=O)COCCOCCNC(=O)COCCOCCNC(=O)CC[C@H](NC(=O)CCCCCCCCCCCCCCCCCCC(=O)O)C(=O)O)[C@@H](C)O)[C@@H](C)O)[C@@H](C)O)C(=O)N[C@@H](CC(C)C)C(=O)N1CCC[C@H]1C(=O)N1CCC[C@H]1C(=O)N[C@H](C(=O)N[C@@H](CC(N)=O)C(=O)N[C@H](C(=O)NCC(=O)N[C@@H](CO)C(=O)N[C@@H](CC(N)=O)C(=O)N[C@H](C(=O)N1CCC[C@H]1C(N)=O)[C@@H](C)O)C(C)C)[C@@H](C)O
For B2, the “EC50/nM, CRE-luciferase reporter in amylin receptor/CRE-luc CHO cells” value worked out at 0.124 nM and the “Relative activity (the EC50 ratio of Cagrilintide to the compound)” value was 25%.
